{"source": "the supplement of paper PMC9112550", "about": "“Optimization of the antimicrobial peptide Bac7 by deep mutational scanning” (BMC Biology, 2022);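 note: peptides expressed intracellularly from a pBAD plasmid library in pooled LB shake-flask culture, induced with 0.3% L-arabinose, DNA abundance read by NGS, three biological replicates, DESeq2 with apeglm shrinkage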"}
{"tested_on": "Escherichia coli TOP10", "assay": "shrunken log2 fold change of peptide-encoding DNA abundance (4.5 h post-induction vs induction); higher = less antimicrobial activity (less host growth inhibition)", "details": "time post-induction: 4.5 h; library: site-saturation at positions 5, 18, 19, 20"}
{"sequence": "RRIRGRPPRLPRPRPRPCVFPRP", "shrunken log2 fold change": 0.664}
{"sequence": "RRIRCRPPRLPRPRPRPTCDPRP", "shrunken log2 fold change": 0.187}
{"sequence": "RRIRNRPPRLPRPRPRPYLPPRP", "shrunken log2 fold change": -0.245}
{"sequence": "RRIRTRPPRLPRPRPRPKCRPRP", "shrunken log2 fold change": 0.0762}
{"sequence": "RRIRSRPPRLPRPRPRPQNIPRP", "shrunken log2 fold change": -0.657}
{"sequence": "RRIRWRPPRLPRPRPRPNYSPRP", "shrunken log2 fold change": -0.15}
{"sequence": "RRIRARPPRLPRPRPRPQGAPRP", "shrunken log2 fold change": 0.191}
{"sequence": "RRIRGRPPRLPRPRPRPRWKPRP", "shrunken log2 fold change": 0.0802}
{"sequence": "RRIRLRPPRLPRPRPRPTYRPRP", "shrunken log2 fold change": -0.266}
{"sequence": "RRIRARPPRLPRPRPRPMNGPRP", "shrunken log2 fold change": -0.0023}
{"sequence": "RRIRNRPPRLPRPRPRPRRFPRP", "shrunken log2 fold change": 0.0247}
{"sequence": "RRIRHRPPRLPRPRPRPRQDPRP", "shrunken log2 fold change": -0.189}
{"sequence": "RRIRGRPPRLPRPRPRPFCDPRP", "shrunken log2 fold change": 0.456}
{"sequence": "RRIRSRPPRLPRPRPRPESYPRP", "shrunken log2 fold change": 1.29}
{"sequence": "RRIRMRPPRLPRPRPRPVGMPRP", "shrunken log2 fold change": 0.366}
{"sequence": "RRIRRRPPRLPRPRPRPNRLPRP", "shrunken log2 fold change": 0.523}
{"sequence": "RRIRFRPPRLPRPRPRPLATPRP", "shrunken log2 fold change": -0.00506}
{"sequence": "RRIRYRPPRLPRPRPRPCPTPRP", "shrunken log2 fold change": -0.0225}
{"sequence": "RRIRIRPPRLPRPRPRPMLFPRP", "shrunken log2 fold change": -0.328}
{"sequence": "RRIRERPPRLPRPRPRPKMLPRP", "shrunken log2 fold change": -0.0332}
{"sequence": "RRIRGRPPRLPRPRPRPYATPRP", "shrunken log2 fold change": 1.81}
{"sequence": "RRIRYRPPRLPRPRPRPNPHPRP", "shrunken log2 fold change": -0.639}
{"sequence": "RRIRTRPPRLPRPRPRPQPFPRP", "shrunken log2 fold change": 0.0325}
{"sequence": "RRIRPRPPRLPRPRPRPMALPRP", "shrunken log2 fold change": -0.0509}
{"sequence": "RRIRPRPPRLPRPRPRPMFNPRP", "shrunken log2 fold change": -0.648}
{"sequence": "RRIRWRPPRLPRPRPRPWKNPRP", "shrunken log2 fold change": 0.0346}
{"sequence": "RRIRVRPPRLPRPRPRPPVRPRP", "shrunken log2 fold change": 0.267}
{"sequence": "RRIRKRPPRLPRPRPRPVQYPRP", "shrunken log2 fold change": 0.071}
{"sequence": "RRIRSRPPRLPRPRPRPEGHPRP", "shrunken log2 fold change": 0.0136}
{"sequence": "RRIRIRPPRLPRPRPRPEYFPRP", "shrunken log2 fold change": -0.0312}
{"sequence": "RRIRKRPPRLPRPRPRPRRIPRP", "shrunken log2 fold change": 0.339}
{"sequence": "RRIRERPPRLPRPRPRPWMDPRP", "shrunken log2 fold change": -0.101}
{"sequence": "RRIRVRPPRLPRPRPRPQYEPRP", "shrunken log2 fold change": -0.174}
{"sequence": "RRIRCRPPRLPRPRPRPKDKPRP", "shrunken log2 fold change": 0.401}
{"sequence": "RRIRMRPPRLPRPRPRPCSDPRP", "shrunken log2 fold change": 0.0242}
{"sequence": "RRIRNRPPRLPRPRPRPWCTPRP", "shrunken log2 fold change": -0.205}
{"sequence": "RRIRERPPRLPRPRPRPAMGPRP", "shrunken log2 fold change": -0.0135}
{"sequence": "RRIRWRPPRLPRPRPRPGRIPRP", "shrunken log2 fold change": 0.298}
{"sequence": "RRIRERPPRLPRPRPRPIGQPRP", "shrunken log2 fold change": 0.000367}
{"sequence": "RRIRPRPPRLPRPRPRPWPAPRP", "shrunken log2 fold change": 0.0589}
{"sequence": "RRIRERPPRLPRPRPRPHQSPRP", "shrunken log2 fold change": -0.0234}
{"sequence": "RRIRPRPPRLPRPRPRPQLAPRP", "shrunken log2 fold change": 0.417}
{"sequence": "RRIRLRPPRLPRPRPRPEKWPRP", "shrunken log2 fold change": -0.0497}
{"sequence": "RRIRLRPPRLPRPRPRPSYHPRP", "shrunken log2 fold change": -0.686}
{"sequence": "RRIRSRPPRLPRPRPRPCGCPRP", "shrunken log2 fold change": -0.00437}
{"sequence": "RRIRLRPPRLPRPRPRPIFRPRP", "shrunken log2 fold change": 0.00696}
{"sequence": "RRIRFRPPRLPRPRPRPYGEPRP", "shrunken log2 fold change": -0.0721}
{"sequence": "RRIRKRPPRLPRPRPRPRDWPRP", "shrunken log2 fold change": 0.935}
{"sequence": "RRIRMRPPRLPRPRPRPDHWPRP", "shrunken log2 fold change": 0.617}
{"sequence": "RRIRRRPPRLPRPRPRPGDFPRP", "shrunken log2 fold change": 0.464}
{"sequence": "RRIRWRPPRLPRPRPRPAWNPRP", "shrunken log2 fold change": 0.155}
{"sequence": "RRIRARPPRLPRPRPRPERYPRP", "shrunken log2 fold change": 0.0113}
{"sequence": "RRIRERPPRLPRPRPRPHMNPRP", "shrunken log2 fold change": -0.337}
{"sequence": "RRIRTRPPRLPRPRPRPLDDPRP", "shrunken log2 fold change": 0.115}
{"sequence": "RRIRFRPPRLPRPRPRPGDAPRP", "shrunken log2 fold change": 0.158}
{"sequence": "RRIRWRPPRLPRPRPRPMLRPRP", "shrunken log2 fold change": 0.0624}
{"sequence": "RRIRIRPPRLPRPRPRPAHWPRP", "shrunken log2 fold change": 0.396}
{"sequence": "RRIRTRPPRLPRPRPRPSQWPRP", "shrunken log2 fold change": -0.168}
{"sequence": "RRIRVRPPRLPRPRPRPKSKPRP", "shrunken log2 fold change": -0.117}
{"sequence": "RRIRCRPPRLPRPRPRPGYNPRP", "shrunken log2 fold change": -0.88}
{"sequence": "RRIRVRPPRLPRPRPRPREQPRP", "shrunken log2 fold change": 0.0561}
{"sequence": "RRIRDRPPRLPRPRPRPRMEPRP", "shrunken log2 fold change": -0.239}
